Source: patent US6942981
Ends that are not written are not given here. * marks the point of attachment. Biotin = O=C1N[C@H]2[C@H](CS[C@H]2CCCCC(=O)*)N1

B1: CC CKR-4 C-terminal peptide AA44L (peptide)
peptide: Biotin-DTPSSSYTQSTMDHDLHDAL
B2: CD3n C-terminal peptide AA4L (peptide)
peptide: Biotin-SVFSIPTLWSPWPPSSSSQL
notes: also called CD3-η
B3: CC CKR-1R C-terminal peptide AA41L (peptide)
peptide: Biotin-LERVSSTSPSTGEHELSAGF
B4: CD49E (alpha-4) C-terminal peptide AA11L (peptide)
peptide: Biotin-PYGTAMEKAQLKPPATSDA
B5: CLASP-4 C-terminal peptide AA3L-V (peptide)
peptide: Biotin-CAISGTSSDRGYGSPRYAEV
B6: CC CKR-3 C-terminal peptide AA43L (peptide)
peptide: Biotin-LERTSSVSPSTAEPELSIVF
B7: CDW125 (IL5R) C-terminal peptide AA28L (peptide)
peptide: Biotin-EVICYIEKPGVETLEDSVF
B8: CD166 (CD6L) C-terminal peptide AA20L (peptide)
peptide: Biotin-DLGNMEENKKLEENNHKTEA
B9: CD49F (Aform, alpha6) C-terminal peptide AA12L (peptide)
peptide: Biotin-HKAEIHAQPSDKERLTSDA
B10: CD97 (CD55L) C-terminal peptide AA14L (peptide)
peptide: Biotin-TSGTGHNQTRALRASESGI
B11: FasLigand C-terminal peptide AA23L-M (peptide)
peptide: Biotin-SSKSKSSEESQTFFGLYKL
modifications: not fully specified
B12: CD62E C-terminal peptide AA48L (peptide)
peptide: Biotin-SSSQSLESDGSYQKPSYIL
B13: BLR-1 C-terminal peptide AA45L (peptide)
peptide: Biotin-PSWRRSSLSESENATSLTTF
B14: CD5 C-terminal peptide AA49L (peptide)
peptide: Biotin-SMQPDNSSDSDYDLHGAQRL
B15: FceRIb C-terminal peptide AA25L (peptide)
peptide: Biotin-YSATYSELEDPGEMSPPIDL
notes: also called FceRlb; FcεRβI
B16: CC CKR-2 C-terminal peptide AA42L (peptide)
peptide: Biotin-GKGKSIGRAPEASLQDKEGA
B17: CD6 C-terminal peptide AA6L (peptide)
peptide: Biotin-SPQPDSTDNDDYDDISAA

Target: T1, GST-SYN1a (alpha1-syntrophin) PDZ domain fusion protein (Homo sapiens (Human), UniProt Q13424 84-179)
T1 construct: also called SYN 1 α; not shown: glutathione S-transferase (GST) encoded by pGEX-3X
T1 sequence: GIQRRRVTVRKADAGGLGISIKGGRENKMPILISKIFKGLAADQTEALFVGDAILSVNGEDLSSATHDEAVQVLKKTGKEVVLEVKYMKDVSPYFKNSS
Assay: A/G assays

Binding result, no binding:
B1
B2
B3
B4
B5
B6
B7
B8
B9
B10
B11
B12
B13
B14
B15
B16
B17

Target: T2, GST-LIMK2 PDZ domain fusion protein (human, UniProt P53671 147-237)
T2 construct: also called human LIM domain kinase 2; not shown: glutathione S-transferase (GST) encoded by pGEX-3X
T2 sequence: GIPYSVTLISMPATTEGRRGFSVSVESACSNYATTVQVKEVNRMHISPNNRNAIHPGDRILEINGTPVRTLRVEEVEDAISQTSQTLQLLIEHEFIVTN
Assay: A/G assays

Binding result, no binding:
B1
B2
B3
B4
B5
B6
B7
B8
B9
B10
B11
B12
B13
B14
B15
B16
B17

Target: T3, GST-DVL1 PDZ domain fusion protein (human)
T3 construct: also called human dishevelled segment polarity protein homolog; not shown: glutathione S-transferase (GST) encoded by pGEX-3X
T3 chain: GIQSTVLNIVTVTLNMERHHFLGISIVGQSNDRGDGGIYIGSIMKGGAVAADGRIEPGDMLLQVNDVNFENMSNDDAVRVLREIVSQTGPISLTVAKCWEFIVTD
Assay: A/G assays

Binding result, no binding:
B1
B2
B3
B4
B5
B6
B7
B8
B9
B10
B11
B12
B13
B14
B15
B16
B17

Target: T4, GST-TAX2 PDZ domain fusion protein (human, UniProt O14908 129-216)
T4 construct: not shown: glutathione S-transferase (GST) encoded by pGEX-3X
T4 chain: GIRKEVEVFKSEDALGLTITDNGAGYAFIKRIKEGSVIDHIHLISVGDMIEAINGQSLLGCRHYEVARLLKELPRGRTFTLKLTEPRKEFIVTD
Assay: A/G assays

Binding result, no binding:
B1
B2
B3
B4
B5
B6
B7
B8
B9
B10
B11
B12
B13
B14
B15
B16
B17

Target: T5, GST-MINT3 PDZ domain fusion protein (human)
T5 construct: also called human MINT3; not shown: glutathione S-transferase (GST) encoded by pGEX-3X
T5 chain: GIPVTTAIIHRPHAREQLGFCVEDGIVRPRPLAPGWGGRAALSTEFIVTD
Assay: A/G assays

Binding result, no binding:
B1
B2
B3
B4
B5
B6
B7
B8
B9
B10
B11
B12
B13
B14
B15
B16
B17

Target: T6, GST-MPP2 PDZ domain fusion protein
T6 construct: also called maguk p55 subfamily member 2 (DLG2); MMP2; not shown: glutathione S-transferase (GST) encoded by pGEX-3X
T6 chain: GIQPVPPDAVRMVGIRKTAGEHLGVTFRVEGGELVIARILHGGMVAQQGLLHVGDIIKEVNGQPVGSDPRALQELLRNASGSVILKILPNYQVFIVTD
Assay: A/G assays

Binding result, no binding:
B1
B2
B3
B4
B5
B6
B7
B8
B9
B10
B11
B12
B13
B14
B15
B16
B17

Target: T7, GST-NeDLG PDZ domains 1-2 fusion protein (Mus musculus (Mouse), UniProt P70175 147-332)
T7 construct: also called NeDLG1; not shown: glutathione S-transferase (GST) encoded by pGEX-3X
T7 chain: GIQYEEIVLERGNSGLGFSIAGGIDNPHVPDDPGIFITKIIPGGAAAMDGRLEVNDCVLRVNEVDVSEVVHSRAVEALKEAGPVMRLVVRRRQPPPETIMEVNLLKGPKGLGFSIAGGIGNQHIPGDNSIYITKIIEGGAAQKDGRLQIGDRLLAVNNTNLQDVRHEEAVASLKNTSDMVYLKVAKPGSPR
Assay: A/G assays

Binding result, no binding:
B1
B2
B3
B4
B6
B7
B8
B9
B10
B11
B12
B13
B14
B15
B16
B17
